Test results from patent US20180215825A1 (BEIGENE, published 2018).
Numbering of substitutions follows the chain as printed.

T1: human FcγRIIAR131 expressed on HEK293 cells (human, UniProt P12318 34-317)
T1 construct: whole, on cells
T1 sequence (looked up): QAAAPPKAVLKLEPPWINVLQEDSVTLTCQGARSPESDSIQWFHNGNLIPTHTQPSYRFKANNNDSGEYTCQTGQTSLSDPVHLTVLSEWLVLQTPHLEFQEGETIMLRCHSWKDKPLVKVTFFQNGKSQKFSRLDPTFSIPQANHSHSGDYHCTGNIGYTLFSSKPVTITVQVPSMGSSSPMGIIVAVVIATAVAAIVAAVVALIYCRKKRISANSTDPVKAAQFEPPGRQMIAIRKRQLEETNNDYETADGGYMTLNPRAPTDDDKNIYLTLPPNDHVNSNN

T2: human FcγRIIB expressed on HEK293 cells (human, UniProt P31994 43-310)
T2 construct: whole, on cells
T2 sequence (looked up): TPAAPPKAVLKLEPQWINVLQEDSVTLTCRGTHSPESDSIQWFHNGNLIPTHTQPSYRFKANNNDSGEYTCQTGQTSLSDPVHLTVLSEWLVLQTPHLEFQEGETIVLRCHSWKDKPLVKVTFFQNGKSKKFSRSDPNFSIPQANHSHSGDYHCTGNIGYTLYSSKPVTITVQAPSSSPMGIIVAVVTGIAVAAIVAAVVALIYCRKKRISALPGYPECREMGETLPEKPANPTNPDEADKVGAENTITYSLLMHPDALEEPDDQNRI

B1: hu333-4B2-IgG1mc (antibody)
heavy: EVQLVESGGGLVQPGGSLRLSCAVSGFSLTSYGVHWVRQAPGKGLEWVAVIWAGGSTNYADSVKGRFTISKDTSKNTVYLQMNSLRAEDTAVYYCAKPYGTSAMDYWGQGTLVTVSSASTKGPSVFPLAPSSKSTSGGTAALGCLVKDYFPEPVTVSWNSGALTSGVHTFPAVLQSSGLYSLSSVVTVPSSSLGTQTYICNVNHKPSNTKVDKKVEPKSCDKTHTCPPCPAPPAAAPSVFLFPPKPKDTLMISRTPEVTCVVVDVSHEDPEVKFNWYVDGVEVHNAKTKPREEQYNSTYRVVSVLTVLHQDWLNGKEYKCKVSNKALAAPIEKTISKAKGQPREPQVYTLPPSRDELTKNQVSLTCLVKGFYPSDIAVEWESNGQPENNYKTTPPVLDSDGSFFLYSKLTVDKSRWQQGNVFSCSVMHEALHNHYTQKSLSLSPGK
light: DIQMTQSPSSLSASVGDRVTITCKASQDVGIVVAWYQQKPGKAPKLLIYWASIRHTGVPSRFSGSGSGTEFTLTISSLQPDDFATYYCQQYSNYPLYTFGQGTKVEIKRTVAAPSVFIFPPSDEQLKSGTASVVCLLNNFYPREAKVQWKVDNALQSGNSQESVTEQDSKDSTYSLSSTLTLSKADYEKHKVYACEVTHQGLSSPVTKSFNRGEC
B2: hu333-4A2-IgG1mc (antibody)
heavy: B1 heavy with A60V, T73N, S74A
light: B1 light
B3: hu333-4B2-IgG1mf (antibody)
heavy: B1 heavy with A236G
light: B1 light
B4: hu333-4A2-IgG1wt (antibody)
heavy: not shown
VL: DIQMTQSPSSLSASVGDRVTITCKASQDVGIVVAWYQQKPGKAPKLLIYWASIRHTGVPSRFSGSGSGTEFTLTISSLQPDDFATYYCQQYSNYPLYTFGQGTKVEIK
notes: light chain constant region (kappa) not tied to an entry for this form

biological target: T1, human FcγRIIAR131 expressed on HEK293 …; assay: FACS, monomeric mAb on FcγR-expressing HEK293 cells, goat anti-human IgG F(ab')2-Alexa Fluor 488 detection
Method: (§1) Bindings of humanized anti-PD-L1 in various IgG1 formats (wt, IgG1mc, IgG1mf, SEQ. NO. 27-29) to FcγRs were also determined by flow cytometry. In brief, a series of stable HEK293 transfectants expressing human FcγRs were established. These stable cell lines expressed FcγRI, FcγRIIAH131, FcγRIIAR131, FcγRIIB, FcγRIIIAF158 or FcγRIIIAV158, respectively. Multi-subunit FcγRs (i.e., FcγRI and FcγRIIIA) were co-expressed with FcRγ subunit.

binding result | Binder
no binding | B1
no binding | B2
no binding | B3

biological target: T2, human FcγRIIB expressed on HEK293 cells; assay: as above
Method: as §1

binding result | Binder
no binding | B1
no binding | B2
no binding | B3

biological target: T3, human FcγRIIIAF158 expressed on HEK293 cells (human, UniProt P08637 17-254); assay: as above
T3 construct: whole, on cells; Co-expressed with FcRγ subunit
T3 sequence (P08637 17-254): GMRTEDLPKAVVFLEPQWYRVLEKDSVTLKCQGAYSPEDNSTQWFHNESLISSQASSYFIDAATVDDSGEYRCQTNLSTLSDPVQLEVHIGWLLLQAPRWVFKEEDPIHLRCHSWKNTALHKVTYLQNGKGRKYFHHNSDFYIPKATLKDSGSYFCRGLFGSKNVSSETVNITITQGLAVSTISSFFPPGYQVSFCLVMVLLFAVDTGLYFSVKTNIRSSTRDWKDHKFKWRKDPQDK
Method: as §1

binding result | Binder
no binding | B1
no binding | B2
no binding | B3

biological target: T4, human FcγRI expressed on HEK293 cells (human, UniProt P12314 16-374); assay: as above
T4 construct: whole, on cells; Co-expressed with FcRγ subunit
T4 sequence (P12314 16-374): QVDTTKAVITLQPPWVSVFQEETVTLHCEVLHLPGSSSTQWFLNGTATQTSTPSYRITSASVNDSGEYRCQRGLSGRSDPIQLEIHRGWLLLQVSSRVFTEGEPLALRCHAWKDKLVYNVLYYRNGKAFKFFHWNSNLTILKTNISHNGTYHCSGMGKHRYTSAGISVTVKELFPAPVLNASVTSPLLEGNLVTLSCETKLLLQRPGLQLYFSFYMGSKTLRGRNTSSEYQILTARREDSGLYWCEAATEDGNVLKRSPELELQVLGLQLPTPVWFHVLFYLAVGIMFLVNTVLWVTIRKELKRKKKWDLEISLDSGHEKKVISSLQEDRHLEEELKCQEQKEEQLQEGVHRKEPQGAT
Method: as §1

binding result | Binder
no binding | B1
no binding | B2
no binding | B3

biological target: T5, mouse PD-L1/His (mouse (Mus musculus), UniProt Q9EP73 19-239); assay: ELISA on coated mouse PD-L1/His, anti-human Fc-HRP [C]
T5 construct: extracellular domain; Said to be expressed and purified in a similar way to the human PD-L1/His; also called murine PD-L1/His; murine PD-L1; not shown: His tag
T5 sequence (Q9EP73 19-239): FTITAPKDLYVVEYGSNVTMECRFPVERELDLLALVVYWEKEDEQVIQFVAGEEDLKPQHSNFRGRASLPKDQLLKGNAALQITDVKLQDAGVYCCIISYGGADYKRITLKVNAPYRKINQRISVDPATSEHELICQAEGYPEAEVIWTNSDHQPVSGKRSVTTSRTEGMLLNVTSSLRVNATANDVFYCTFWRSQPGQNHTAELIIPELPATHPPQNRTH
Method: (§2) The monkey PD-L1/His and murine PD-L1/His were expressed and purified in a similar way to the human PD-L1/His as described earlier. […] The synthesized full length mAb was named as Y1-IgG1mc. The ELISA assay was performed essentially in the same way as described in the previous section. Briefly, 200 ng of PD-L1 protein was coated on each well of Nunc MaxiSorp ELISA plate (Cat. No. 442404, Nunc, Thermo Fisher). After washing and blocking, indicated concentrations of anti-PD-L1 mAbs were added and incubated at room temperature for 1 hour. After washing, the bound anti-PD-L1 mAbs were detected using a HRP-conjugated goat anti-human Fc antibody (Cat. No. A0170, Sigma).

binding result | Binder
no binding (tested: 1 µg/ml) | B1
no binding (tested: 1 µg/ml) | B2
no binding (tested: 1 µg/ml) | B3

biological target: T6, cynomolgus monkey PD-L1/His (cynomolgus monkey (Macaca fascicularis), UniProt G7PSE7 19-238); assay: ELISA on coated cynomolgus monkey PD-L1/His, anti-human Fc-HRP [B]
T6 construct: extracellular domain; Said to be expressed and purified in a similar way to the human PD-L1/His (PD-L1-ECD/His); not shown: His tag
T6 sequence (G7PSE7 entry or part of it): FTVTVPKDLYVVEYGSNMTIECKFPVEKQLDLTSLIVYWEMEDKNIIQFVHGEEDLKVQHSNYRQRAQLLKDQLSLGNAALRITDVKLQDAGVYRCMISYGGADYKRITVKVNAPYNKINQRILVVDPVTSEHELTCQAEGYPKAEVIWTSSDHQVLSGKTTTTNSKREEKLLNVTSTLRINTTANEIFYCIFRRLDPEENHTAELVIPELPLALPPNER
Method: as §2

EC50 (read off the curve) [µg/mL] | Binder
~0.04 | B1
~0.04 | B2
~0.04 | B3

biological target: T7, human PD-L1, full length, expressed on cells (human, UniProt Q9NZQ7 19-290); assay: FACS competition with PD-1/Fc on HEK293/PD-L1 cells
T7 construct: also called HEK293/PD-L1 cells; HEK293/OS8/PD-L1 cells
T7 sequence (Q9NZQ7 19-290 limits assumed): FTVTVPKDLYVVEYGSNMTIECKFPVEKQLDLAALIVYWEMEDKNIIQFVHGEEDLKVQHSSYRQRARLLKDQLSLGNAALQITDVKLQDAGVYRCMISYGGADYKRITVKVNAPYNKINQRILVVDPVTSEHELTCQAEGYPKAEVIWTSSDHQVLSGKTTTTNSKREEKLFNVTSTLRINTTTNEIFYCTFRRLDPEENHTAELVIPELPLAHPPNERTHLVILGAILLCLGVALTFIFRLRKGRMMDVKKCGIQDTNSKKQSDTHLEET

IC50 [µg/mL] | Max inhibition [%] | Binder
0.167 | 100 | B1
0.172 | 100 | B2
0.174 | 100 | B3

biological target: T7, human PD-L1, full length, expressed on …; assay: FACS on HEK293/PD-L1 cells
Method: FACS binding analysis was performed as described in previous sections.

EC50 [µg/mL] | Top MFI [MFI] | Binder
0.092 | 1390 | B1
0.098 | 1360 | B2
0.102 | 1340 | B3

biological target: T8, human PD-L1-ECD/His (human, UniProt Q9NZQ7 19-238); assay: ELISA on coated human PD-L1/His, anti-human Fc-HRP; x-axis printed as 'Ag concentration', mAb concentration according to paragraph 44 [A]
T8 construct: Expressed in 293-F cells; also called PD-L1/His; human PD-L1/His
T8 sequence (Q9NZQ7 19-238): as the sequence (G7PSE7 entry or part of it) above, with T33A, S34A, N62S, Q68R, R82Q, L173F, A185T, I192T, L215H counted along it
Method: as §2

EC50 (read off the curve) [µg/mL] | Binder
~0.03 | B1
~0.03 | B2
~0.03 | B3

biological target: T9, human C1q (human, UniProt P02745 23-245; P02746 28-253; P02747 29-245); assay: ELISA: antibody coated on the plate at the x-axis concentration, human C1q added (2 µg/mL), bound C1q detected with an anti-C1q mAb
T9 construct: Bought (Cat. No. A400, Quidel); also called complement component C1q
T9 sequence (P02745 23-245, chain 1 of 3): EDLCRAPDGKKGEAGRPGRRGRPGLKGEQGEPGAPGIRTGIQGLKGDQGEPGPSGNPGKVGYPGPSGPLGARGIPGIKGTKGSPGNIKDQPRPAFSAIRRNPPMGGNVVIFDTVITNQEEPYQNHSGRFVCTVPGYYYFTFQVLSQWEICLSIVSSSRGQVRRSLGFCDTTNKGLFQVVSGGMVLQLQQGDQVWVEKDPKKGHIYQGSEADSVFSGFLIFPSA
T9 sequence (P02746 28-253, chain 2 of 3): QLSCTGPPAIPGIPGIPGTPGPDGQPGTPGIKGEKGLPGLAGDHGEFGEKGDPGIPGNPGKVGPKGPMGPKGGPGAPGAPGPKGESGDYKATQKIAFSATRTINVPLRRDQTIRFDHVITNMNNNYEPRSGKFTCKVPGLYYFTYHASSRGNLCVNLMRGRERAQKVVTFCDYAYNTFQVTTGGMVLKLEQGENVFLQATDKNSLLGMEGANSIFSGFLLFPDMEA
T9 sequence (P02747 29-245, chain 3 of 3): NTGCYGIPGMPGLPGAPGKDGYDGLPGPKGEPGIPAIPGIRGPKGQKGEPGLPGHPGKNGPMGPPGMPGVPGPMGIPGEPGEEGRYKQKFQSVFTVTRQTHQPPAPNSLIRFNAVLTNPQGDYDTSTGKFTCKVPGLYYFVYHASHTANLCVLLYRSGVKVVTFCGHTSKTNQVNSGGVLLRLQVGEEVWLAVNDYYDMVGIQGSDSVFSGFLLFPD
Method: The ELISA-based C1q binding assay was done by conventional ELISA method with minor modification. […] After blocking and washing, the wells were incubated with 2 μg/mL of human C1q (Cat. No. A400, Quidel, San Diego, USA) at room temperature for 2 hours.

Binder | binding result
B1 | no binding (tested: about 20 µg/ml (coating concentration))
B2 | no binding (tested: about 20 µg/ml (coating concentration))
B3 | no binding (tested: about 20 µg/ml (coating concentration))
B4 | binds
